# Assay results taken from patent publication US20080207594A1, “Use of Gsk-3 Inhibitors for Preventing and Treating Pancreatic Autoimmune Disorders” (Davelogen Aktiengesellschaft, priority 2005, published 2008).
# B1: activin B: protein related to activin A (protein, UniProt P09529 293-407, looked up)
# Inhibin beta B chain: GLECDGRTNLCCRQQFFIDFRLIGWNDWIIAPTGYYGNYCEGSCPAYLAGVPGSASSFHTAVVNQYRMRGLNPGTVNSCCIPTKLSTMSMLYFDDEYNIVKRDVPNMIVEECGCA
# modifications: Inhibin beta B chain
# B2: Activin: Activin; figures 18 and 19 name activin-A (protein, UniProt P08476 311-426, looked up)
# Inhibin beta A chain: GLECDGKVNICCKKQFFVSFKDIGWNDWIIAPSGYHANYCEGECPSHIAGTSGSSLSFHSTVINHYRMRGHSPFANLKSCCVPTKLRPMSMLYYDDGQNIIKKDIQNMIVEECGCS
# modifications: Inhibin beta A chain
# Assays:
# Format in all cases: cell-based, rat
# Pax4 = Pax4 transcription in INS-1E insulinoma cells, quantitative RT-PCR; settings: INS-1E cells
# Description: The response of the Pax4 gene to test compounds was investigated in the rat insulinoma cell line INS-1E. INS-1E cells are known to express Pax4 and to upregulate Pax4 levels in response to the treatment with activin-A and betacellulin. In the search for novel beta cell mitogens and/or beta cell protective agents the inventors treated INS-1E cells with different test compounds.
# (§1) Total RNA from 8×10^4 cells growing on 4 cm^2 surface area of a tissue culture dish was extracted using Qiagen RNAeasy kit according to the instructions of the manufacturer (Qiagen) and 2 μg was converted into cDNA. Primers for pax4, 18S RNA, and rat RNA polymerase II largest subunit (RPB1) were designed using the Primer Express 1.5 Software from Applied Biosystems and sequences can be obtained upon request. Quantitative real-time PCR was performed using Applied Biosystems SDS 7000 detection system. Amplifications from 2 independent experiments were performed in duplicate for each transcript and mean values were normalized to the mean value of the reference RNA 18S RNA.
# (§2) Cells were seeded at a density of 2×10^4 cells per cm^2 6 to 8 days before the treatment with chemicals. During the growth period the medium was changed once. The cells were incubated for different periods of time with chemicals under serum-free conditions. The cells were harvested in Qiagen RNAeasy cell lysate buffer and immediately transferred to dry ice. The samples were stored at −20° C. until RNA isolation was carried out.
# as §2, with “RNA easy” for “RNAeasy”, “−20 degree” for “−20° C.”
# [1] = tested on: RNA polymerase II largest subunit (RPB1); assay: Expression of unrelated gene RPB1 in INS-1E cells, quantitative RT-PCR
# Description: The response of the Pax4 gene to mitogens was investigated in the rat insulinoma cell line INS-1E. INS-1E cells are known to express Pax4 and to upregulate Pax4 levels in response to the treatment with activin-A and betacellulin (Ueda (2000), supra, Li et al. (2004) supra, Brun et al. (2004), supra). In the search for novel beta-cell mitogens the inventors treated INS-1E cells with proteins related to activin A or betacellulin. […] The Pax4 RNA expression level was normalized to this of 18S RNA. The level of the unrelated gene RNA polymerase II largest subunit (RPB1) was unaffected by activin B treatment.
# as §1
# INS-1E cells were cultured as described (Merglen, (2004) Endocrinology; 145: 667-678). […]
# human Pax4 promoter [2] = assay: Pax4 reporter gene assay in INS-1-cl.-3.5 cells; settings: INS-1-cl.-3.5 or INS-1-cl.-9 cells; FIG. 18, FIG. 19
# Procedure: (§3) INS-1E cell lines were grown as described below. The Pax-4-reporter gene construct (referred to as pKS-Pax-4-LUC), a cDNA construct containing a firefly luciferase reporter (LUC) gene under the transcriptional control of human Pax4 promoter sequences and the nearly complete human Pax4 gene locus (cf. FIG. 5A) was cloned into the plasmid pBluescript ks.
# (§4) Adherent INS-1E cells were transfected using Lipofectamine 2000 (Invitrogen) according to the protocol provided by the supplier. The transfected cells were treated with media containing 400 μg/ml G418 Sulfate (e.g. Geneticin from Gibco; Cat. No. 11811-098), a selection agent for eukaryotic cells, 24 to 48 hours after the transfection. To establish independent stable cell lines, cell colonies which occurred 2 to 6 weeks after the transfection were individually transferred to new culture dishes and then propagated like untransfected INS-1E cells, but in the presence of G418 Sulfate.
# (§5) For the identification and/or characterization of beta-cell mitogens a Pax4 reporter gene assay has been established. […]
# (§6) Luciferase activity that can be quantified using appropriate imaging systems reflects the activation status of the human Pax4 promoter. […]
# human Pax4 promoter [3] = assay: Pax4 reporter gene assay in INS-1-cl-1.5 cells
# Procedure: as §3, §4, §5, §6
Molecule,increase in Pax4 levels (maximal Pax4 induction) (Pax4; 1 nM) [fold],stimulation of Pax4 transcription relative to activin A (in words) (Pax4; FIG. 16),level of RNA polymerase II largest subunit (RPB1) [1],Pax4 reporter response of clone (in words) (human Pax4 promoter [2]),Pax4 reporter response of clone (in words) (human Pax4 promoter [3])
B1,~7.5,almost equally potent in stimulating Pax4 transcription as activin A,unaffected,,
B2,,,,react to Activin treatment,does not react to Activin stimulation
